Substitutions are numbered along the chain they refer to.
Columns and labels:
[1] = biological target: T1, PYR1^CA4 (H60P, V83F, F159V, M158I), 6xHis fusion
T1 chain: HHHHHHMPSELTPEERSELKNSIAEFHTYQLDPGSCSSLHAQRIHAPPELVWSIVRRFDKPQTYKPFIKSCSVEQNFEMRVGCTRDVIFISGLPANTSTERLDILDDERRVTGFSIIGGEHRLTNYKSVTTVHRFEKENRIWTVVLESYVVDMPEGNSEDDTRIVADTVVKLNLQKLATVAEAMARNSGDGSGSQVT

[2] = biological target: T2, PYR1^CA3 (H60P, V83F, F159V), 6xHis fusion
T2 chain: T1 chain with I164M

B1: 6xHis-SUMO-ABI1 (protein)
chain: HHHHHHSDSEVNQEAKPEVKPEVKPETHINLKVSDGSSEIFFKIKKTTPLRRLMEAFAKRQGKEMDSLRFLYDGIRIQADQTPEDLDMEDNDIIEAHREQIGGMEEVSPAIAGPFRPFSETQMDFTGIRLGKGYCNNQYSNQDSENGDLMVSLPETSSCSVSGSHGSESRKVLISRINSPNLNMKESAAADIVVVDISAGDEINGSDITSEKKMISRTESRSLFEFKSVPLYGFTSICGRRPEMEDAVSTIPRFLQSSSGSMLDGRFDPQSAAHFFGVYDGHGGSQVANYCRERMHLALAEEIAKEKPMLCDGDTWLEKWKKALFNSFLRVDSEIESVAPETVGSTSVVAVVFPSHIFVANCGDSRAVLCRGKTALPLSVDHKPDREDEAARIEAAGGKVIQWNGARVFGVLAMSRSIGDRYLKPSIIPDPEVTAVKRVKEDDCLILASDGVWDVMTDEEACEMARKRILLWHKKNAVAGDASLLADERRKEGKDPAAMSAAEYLSKLAIQRGSKDNISVVVVDLKPRRKLKSKPLN
- PP2C activity, % of control, pNPP hydrolysis, in the absence of ABA [1]: both the triple and quadruple mutants dramatically increased basal PYR1 activity relative to wild-type PYR1
- PP2C activity, % of control, pNPP hydrolysis, in the absence of ABA [2]: both the triple and quadruple mutants dramatically increased basal PYR1 activity relative to wild-type PYR1

B2: 6xHis-SUMO-ABI2 (protein)
chain: HHHHHHSDSEVNQEAKPEVKPEVKPETHINLKVSDGSSEIFFKIKKTTPLRRLMEAFAKRQGKEMDSLRFLYDGIRIQADQTPEDLDMEDNDIIEAHREQIGGMDEVSPAVAVPFRPFTDPHAGLRGYCNGESRVTLPESSCSGDGAMKDSSFEINTRQDSLTSSSSAMAGVDISAGDEINGSDEFDPRSMNQSEKKVLSRTESRSLFEFKCVPLYGVTSICGRRPEMEDSVSTIPRFLQVSSSSLLDGRVTNGFNPHLSAHFFGVYDGHGGSQVANYCRERMHLALTEEIVKEKPEFCDGDTWQEKWKKALFNSFMRVDSEIETVAHAPETVGSTSVVAVVFPTHIFVANCGDSRAVLCRGKTPLALSVDHKPDRDDEAARIEAAGGKVIRWNGARVFGVLAMSRSIGDRYLKPSVIPDPEVTSVRRVKEDDCLILASDGLWDVMTNEEVCDLARKRILLWHKKNAMAGEALLPAEKRGEGKDPAAMSAAEYLSKMALQKGSKDNISVVVVDLKGIRKFKSKSLN
- PP2C activity, % of control, pNPP hydrolysis, in the absence of ABA [1]: both the triple and quadruple mutants dramatically increased basal PYR1 activity relative to wild-type PYR1
- PP2C activity, % of control, pNPP hydrolysis, in the absence of ABA [2]: both the triple and quadruple mutants dramatically increased basal PYR1 activity relative to wild-type PYR1
